Results published in the RNAGym collection of RNA variant scans (doi:10.1073/pnas.2313332121).

B1: TPR t1 (parent)
chain: GACCAAUCUGCCCUCAGAGCUCGAGAACAUCUUCGGAUGCAGAGGAGGCAGGCUUCGGUGGCGCGAUAGCGCCAACGUCCUCAACCUCCAAUGCAUCCCACCACAUGAUGAUGCCUGAAGAGCCUUGGUUUUUUG

Variants of: B1
Assay: polymerase ribozyme fitness, log enrichment relative to wild type (log ratio); higher = more active; in vitro selection for triplet polymerase activity
Outline: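 Streptavidin-bead capture of gel-excised extended constructs, followed by RT-PCR, closed a single triplicate in vitro selection round. That round began by annealing PCR-built, transcribed mutant libraries of each subunit of a heterodimeric triplet polymerase ribozyme with a biotinylated primer, the partner subunit and triplets, then incubating them frozen at −7 °C. After Illumina sequencing of inputs and outputs, genotypes needed ≥10 input reads and ≥1 read per output. Fitness is the base-2 logarithm of genotype enrichment over wild-type enrichment, using inverse-variance-weighted replicate averages.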

Question: Which “polymerase ribozyme fitness (log ratio)” value does the source give for G60U A119G here?
Answer: -0.151

Question: With G60U C86U A103U as the variant, how does the “polymerase ribozyme fitness (log ratio)” value read?
Answer: -6.46

Question: With G61A A66G C104A as the variant, how does the “polymerase ribozyme fitness (log ratio)” value read?
Answer: -3.27

Question: For G60C C114A, which “polymerase ribozyme fitness (log ratio)” value is on record?
Answer: -1.83

Question: For U59G G122A, which “polymerase ribozyme fitness (log ratio)” value is on record?
Answer: -1.35

Question: Which “polymerase ribozyme fitness (log ratio)” value does the source give for G60A G122A here?
Answer: -0.483

Question: Which “polymerase ribozyme fitness (log ratio)” value does the source give for G60U G117U here?
Answer: -1.65

Question: For U59C C102A C115G, which “polymerase ribozyme fitness (log ratio)” value is on record?
Answer: -4.44

Question: For G60A G93A C99U, which “polymerase ribozyme fitness (log ratio)” value is on record?
Answer: -5.15

Question: With G60A C82A U106A G120A as the variant, how does the “polymerase ribozyme fitness (log ratio)” value read?
Answer: 0.0586

Question: With G60U G93A as the variant, how does the “polymerase ribozyme fitness (log ratio)” value read?
Answer: -0.449

Question: With G60U G93C as the variant, how does the “polymerase ribozyme fitness (log ratio)” value read?
Answer: -0.936

Question: Which “polymerase ribozyme fitness (log ratio)” value does the source give for G61A C73A C123A here?
Answer: -0.908

Question: For U59G C62A A95U, which “polymerase ribozyme fitness (log ratio)” value is on record?
Answer: -3.76

Question: For G60A C85A, which “polymerase ribozyme fitness (log ratio)” value is on record?
Answer: -1.07

Question: For G60A G110C, which “polymerase ribozyme fitness (log ratio)” value is on record?
Answer: -3.08

Question: Which “polymerase ribozyme fitness (log ratio)” value does the source give for G60A C99U here?
Answer: -2.87

Question: Which “polymerase ribozyme fitness (log ratio)” value does the source give for G60A G117C A121U here?
Answer: -2.7

Question: With G61A C79A C104A A111U as the variant, how does the “polymerase ribozyme fitness (log ratio)” value read?
Answer: -5.96

Question: For G60A C114A, which “polymerase ribozyme fitness (log ratio)” value is on record?
Answer: -1.45

Question: Which “polymerase ribozyme fitness (log ratio)” value does the source give for G60A C114U here?
Answer: -1.78

Question: For U59G U92G G110A U133C, which “polymerase ribozyme fitness (log ratio)” value is on record?
Answer: -4.4

Question: With U59C G107A as the variant, how does the “polymerase ribozyme fitness (log ratio)” value read?
Answer: -5.95

Question: Which “polymerase ribozyme fitness (log ratio)” value does the source give for G60C C72U here?
Answer: -0.882

Question: With U59C G117A as the variant, how does the “polymerase ribozyme fitness (log ratio)” value read?
Answer: -1.62

Question: With G60A C97G G117C as the variant, how does the “polymerase ribozyme fitness (log ratio)” value read?
Answer: -6.67

Question: Which “polymerase ribozyme fitness (log ratio)” value does the source give for G60A U92A here?
Answer: -3.24

Question: With G60C G77A as the variant, how does the “polymerase ribozyme fitness (log ratio)” value read?
Answer: -1.47

Question: For G60A C124G, which “polymerase ribozyme fitness (log ratio)” value is on record?
Answer: 1.59

Question: For G60C U92G, which “polymerase ribozyme fitness (log ratio)” value is on record?
Answer: -3.59

Question: With G61A A84U C114U as the variant, how does the “polymerase ribozyme fitness (log ratio)” value read?
Answer: -2.12

Question: Which “polymerase ribozyme fitness (log ratio)” value does the source give for G60U C97U here?
Answer: -1.7

Question: With G60U C97A as the variant, how does the “polymerase ribozyme fitness (log ratio)” value read?
Answer: -5.24

Question: With G60U C104U U116A as the variant, how does the “polymerase ribozyme fitness (log ratio)” value read?
Answer: -2.99

Question: For G60A C82U, which “polymerase ribozyme fitness (log ratio)” value is on record?
Answer: -0.523

Question: With G60U U131C as the variant, how does the “polymerase ribozyme fitness (log ratio)” value read?
Answer: -0.0582

Question: For G60U A91U A121U, which “polymerase ribozyme fitness (log ratio)” value is on record?
Answer: 0.38

Question: With G60C C102U G128A as the variant, how does the “polymerase ribozyme fitness (log ratio)” value read?
Answer: -4.97

Question: For G60U C114U, which “polymerase ribozyme fitness (log ratio)” value is on record?
Answer: -2.1

Question: Which “polymerase ribozyme fitness (log ratio)” value does the source give for G60A A105U here?
Answer: -1.64

Question: With U59G C72A as the variant, how does the “polymerase ribozyme fitness (log ratio)” value read?
Answer: -2.02

Question: For G60A C101G, which “polymerase ribozyme fitness (log ratio)” value is on record?
Answer: -1.57

Question: With G60C C80U as the variant, how does the “polymerase ribozyme fitness (log ratio)” value read?
Answer: -4.1

Question: With G60C G110U U125G as the variant, how does the “polymerase ribozyme fitness (log ratio)” value read?
Answer: -2.79

Question: Which “polymerase ribozyme fitness (log ratio)” value does the source give for G61A A118G here?
Answer: -0.742

Question: Which “polymerase ribozyme fitness (log ratio)” value does the source give for G60C U81A A83C here?
Answer: -3.92

Question: With G60C U130G as the variant, how does the “polymerase ribozyme fitness (log ratio)” value read?
Answer: -1.28

Question: With G61A A100U as the variant, how does the “polymerase ribozyme fitness (log ratio)” value read?
Answer: -0.262

Question: Which “polymerase ribozyme fitness (log ratio)” value does the source give for G60A C62U U112G here?
Answer: 0.38

Question: With U59G C97U as the variant, how does the “polymerase ribozyme fitness (log ratio)” value read?
Answer: -1.6

Question: With G60U C80U C123A as the variant, how does the “polymerase ribozyme fitness (log ratio)” value read?
Answer: -1.11

Question: With G60C C88U G117A as the variant, how does the “polymerase ribozyme fitness (log ratio)” value read?
Answer: -1.68

Question: Which “polymerase ribozyme fitness (log ratio)” value does the source give for G60C A90C C97U G117C here?
Answer: -6.07

Question: For G60C C114A C115G G122C U133C, which “polymerase ribozyme fitness (log ratio)” value is on record?
Answer: -4.6

Question: Which “polymerase ribozyme fitness (log ratio)” value does the source give for G60A A84C here?
Answer: -0.0134

Question: For G60A C79U U130A, which “polymerase ribozyme fitness (log ratio)” value is on record?
Answer: 0.0156

Question: With G60A C72G C79A U87C U129C as the variant, how does the “polymerase ribozyme fitness (log ratio)” value read?
Answer: -3.89

Question: For G60U G93C C104A G113C, which “polymerase ribozyme fitness (log ratio)” value is on record?
Answer: -4.47

Question: With G60A U116C A118C as the variant, how does the “polymerase ribozyme fitness (log ratio)” value read?
Answer: -3.05

Question: With G60U U78A U106A as the variant, how does the “polymerase ribozyme fitness (log ratio)” value read?
Answer: 0.283

Question: With U59C C86U as the variant, how does the “polymerase ribozyme fitness (log ratio)” value read?
Answer: -1.17

Question: With U59G C85U G113A as the variant, how does the “polymerase ribozyme fitness (log ratio)” value read?
Answer: -1.67

Question: For G61A C86U, which “polymerase ribozyme fitness (log ratio)” value is on record?
Answer: -0.712

Question: Which “polymerase ribozyme fitness (log ratio)” value does the source give for G60A A103C A111C here?
Answer: -4.91

Question: With G60A U78A G107C A111U as the variant, how does the “polymerase ribozyme fitness (log ratio)” value read?
Answer: -5.18

Question: For G60C C79A C88G, which “polymerase ribozyme fitness (log ratio)” value is on record?
Answer: -2.51

Question: Which “polymerase ribozyme fitness (log ratio)” value does the source give for U59C C70A here?
Answer: -2.41

Question: For G60U G93A C98G, which “polymerase ribozyme fitness (log ratio)” value is on record?
Answer: -6.44

Question: Which “polymerase ribozyme fitness (log ratio)” value does the source give for U59C G127C here?
Answer: -1.09

Question: For G61A A90G G128U, which “polymerase ribozyme fitness (log ratio)” value is on record?
Answer: -1.55

Question: With U59C U78G C104U G117A as the variant, how does the “polymerase ribozyme fitness (log ratio)” value read?
Answer: -2.35

Question: For G60A A100C C104U C123A, which “polymerase ribozyme fitness (log ratio)” value is on record?
Answer: -0.726

Question: Which “polymerase ribozyme fitness (log ratio)” value does the source give for G61A C72U G77U here?
Answer: -0.134

Question: With G61A C86G G93C as the variant, how does the “polymerase ribozyme fitness (log ratio)” value read?
Answer: -2.03

Question: Which “polymerase ribozyme fitness (log ratio)” value does the source give for G61A A84U C94A U131C here?
Answer: -0.628

Question: Which “polymerase ribozyme fitness (log ratio)” value does the source give for G60A U133A here?
Answer: -0.249

Question: With G60A C102A G120C U132C as the variant, how does the “polymerase ribozyme fitness (log ratio)” value read?
Answer: -1.03

Question: For U59C C123G, which “polymerase ribozyme fitness (log ratio)” value is on record?
Answer: 1.95

Question: For G60U U132A, which “polymerase ribozyme fitness (log ratio)” value is on record?
Answer: -0.036

Question: Which “polymerase ribozyme fitness (log ratio)” value does the source give for G60U U126C here?
Answer: -0.44

Question: Which “polymerase ribozyme fitness (log ratio)” value does the source give for U59C C101A here?
Answer: -1.32

Question: Which “polymerase ribozyme fitness (log ratio)” value does the source give for G60A G63A C114U here?
Answer: -4.85

Question: For U59G C101U U131G U133A, which “polymerase ribozyme fitness (log ratio)” value is on record?
Answer: -0.675
